Results on 3 molecules are retold here after PMC4262410, “Identification of Dipeptidyl-Peptidase (DPP)5 and DPP7 in Porphyromonas endodontalis, Distinct from Those in Porphyromonas gingivalis” (PLoS ONE, 2014).

The term Km denotes the substrate concentration at which the rate is half of its maximum. As a reminder, the kcat is the maximal rate divided by the concentration of active sites. Broadly, the kcat/Km is the turnover number divided by the Michaelis constant.

The subject of data set [1] is Cc1cc(=O)oc2cc(NC(=O)[C@H](C)NC(=O)[C@@H](N)CCCCN)ccc12. The data set is described as follows: purified protein. Conditions: 50 mM sodium phosphate pH 7.0, 5 mM EDTA, 0.1 M NaCl, 37°C.
Excerpt: (§2) fluorescence of released aminomethylcoumarin, Michaelis-Menten fit on PeDPP5 (MER236725)
Data set [2] relates to Cc1cc(=O)oc2cc(NC(=O)[C@H](Cc3ccccc3)NC(=O)CN)ccc12. The data set is described as follows: purified protein. Conditions: 50 mM sodium phosphate pH 7.0, 5 mM EDTA, 0.1 M NaCl, 37°C.
Excerpt: as §2
Data set [3] concerns Cc1cc(=O)oc2cc(NC(=O)[C@H](Cc3ccc(O)cc3)NC(=O)[C@@H](N)CO)ccc12. The data set is described as follows: purified protein. The conditions noted are these: 50 mM sodium phosphate pH 7.0, 5 mM EDTA, 0.1 M NaCl, 37°C.
Excerpt: as §2
Data set [4] has as its target T1, PeDPP7 (MER278904) (Porphyromonas endodontalis, UniProt C3JAQ3).
T1 construct: gene dpp7; 70-kDa single band; S46 family
The data set is described as follows: fluorescence of released aminomethylcoumarin, hydrolysis rate. The class given is biochemical. Conditions: 20 µM substrate, 50 mM sodium phosphate pH 7.0, 5 mM EDTA, 37°C.

The test system of data set [5] is Cc1cc(=O)oc2cc(NC(=O)[C@H](C)NC(=O)[C@@H](N)CCCCN)ccc12. The data set is described as follows: fluorescence of released aminomethylcoumarin, Michaelis-Menten fit. It is filed as biochemical, Porphyromonas gingivalis. Conditions: 50 mM sodium phosphate pH 7.0, 5 mM EDTA, 0.1 M NaCl, 37°C. From the text:
(§1) fluorescence of released aminomethylcoumarin, Michaelis-Menten fit on PgDPP5

For data set [6], the system named is Cc1cc(=O)oc2cc(NC(=O)[C@H](Cc3ccccc3)NC(=O)CN)ccc12. The data set is described as above. The conditions noted are these: 50 mM sodium phosphate pH 7.0, 5 mM EDTA, 0.1 M NaCl, 37°C. The class given is biochemical, Porphyromonas gingivalis.
Excerpt: as §1

For data set [7], the system named is Cc1cc(=O)oc2cc(NC(=O)[C@H](Cc3ccc(O)cc3)NC(=O)[C@@H](N)CO)ccc12. The data set is described as above. The conditions noted are these: 50 mM sodium phosphate pH 7.0, 5 mM EDTA, 0.1 M NaCl, 37°C. It is filed as biochemical, Porphyromonas gingivalis.
Excerpt: as §1

Residues, ends and D or L forms follow the SMILES beside them. *: point of attachment. AMC = Cc1cc(=O)oc2cc(N*)ccc12

T1 sequence (C3JAQ3 3-710): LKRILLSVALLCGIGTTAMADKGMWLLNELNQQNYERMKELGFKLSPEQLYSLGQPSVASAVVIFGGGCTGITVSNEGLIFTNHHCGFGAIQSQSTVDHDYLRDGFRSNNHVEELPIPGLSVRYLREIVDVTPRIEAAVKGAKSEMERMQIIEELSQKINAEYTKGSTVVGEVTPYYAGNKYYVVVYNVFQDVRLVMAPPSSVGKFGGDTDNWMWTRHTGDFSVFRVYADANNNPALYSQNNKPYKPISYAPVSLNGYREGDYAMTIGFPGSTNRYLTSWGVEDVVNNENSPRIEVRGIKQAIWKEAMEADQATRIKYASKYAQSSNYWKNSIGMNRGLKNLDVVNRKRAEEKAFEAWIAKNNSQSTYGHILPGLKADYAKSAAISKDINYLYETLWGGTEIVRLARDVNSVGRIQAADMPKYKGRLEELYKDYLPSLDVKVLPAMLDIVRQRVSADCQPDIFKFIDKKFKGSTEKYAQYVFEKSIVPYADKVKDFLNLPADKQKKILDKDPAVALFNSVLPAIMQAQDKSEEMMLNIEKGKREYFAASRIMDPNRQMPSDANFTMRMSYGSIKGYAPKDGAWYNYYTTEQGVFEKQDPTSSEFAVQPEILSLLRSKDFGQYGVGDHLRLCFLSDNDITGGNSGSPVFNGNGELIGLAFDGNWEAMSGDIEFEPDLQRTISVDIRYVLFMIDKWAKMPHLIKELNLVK

Consider “PeDPP5 (MER236725) (Porphyromonas endodontalis ATCC 35406)”, for which, in data set [1], the Km stood at 110 ± 7 µM, the kcat worked out at 21200 ± 932 s⁻¹ and the kcat/Km was determined as 1.94e+08 M⁻¹ s⁻¹. In data set [2], the Km is 993 ± 176 µM, the kcat came out at 10400 ± 1640 s⁻¹ and the kcat/Km worked out at 1.05e+07 M⁻¹ s⁻¹. For the same molecule, in data set [3], the Km was found to be 257 ± 9 µM, the kcat came to 3470 ± 87 s⁻¹ and the kcat/Km was 1.35e+07 M⁻¹ s⁻¹.

`Cc1cc(=O)oc2cc(NC(=O)[C@H](C)NC(=O)[C@@H](N)CCCCN)ccc12` [Lys-Ala-MCA] (H-Lys-Ala-{AMC}): the “fluorescence of released aminomethylcoumarin, hydrolysis rate” value in data set [4] was “slowly hydrolyzed Leu-Gln-, Lys-Ala-, Leu-Arg-, and Ala-Asn-MCA”.

For “PgDPP5 (Porphyromonas gingivalis ATCC 33277)”, in data set [5], the Km came to 185 ± 21 µM, the kcat was found to be 1950 ± 165 s⁻¹ and the kcat/Km was 1.05e+07 M⁻¹ s⁻¹. In addition, in data set [6], the Km came out at 396 ± 51 µM, the catalytic constant (kcat) stood at 5640 ± 403 s⁻¹ and the kcat/Km was 1.3e+07 M⁻¹ s⁻¹. Further, in data set [7], the Km worked out at 296 ± 31 µM, the kcat came out at 1330 ± 100 s⁻¹ and the kcat/Km amounted to 4.49e+06 M⁻¹ s⁻¹.
